The record followed here is article PMC11906780 (Scientific Reports, 2025).

Assay [1] deals with RSV G^ecto with GalNAc-restricted O-glycosylation (Human respiratory syncytial virus A, …, UniProt P03423). In words: cryo-EM structure. The conditions noted are these: both partners purified.
For assay [2], the target named is T1, RSV strain A2 (RSV/A2) G glycoprotein ectodomain (RSV G^ecto) (Human respiratory syncytial virus A, …, UniProt P03423).
T1 construct: not shown: 6xHistidine-Tag, C-terminal, kept
T1 sequence (P03423 whole entry, looked up, the tested form may be a part): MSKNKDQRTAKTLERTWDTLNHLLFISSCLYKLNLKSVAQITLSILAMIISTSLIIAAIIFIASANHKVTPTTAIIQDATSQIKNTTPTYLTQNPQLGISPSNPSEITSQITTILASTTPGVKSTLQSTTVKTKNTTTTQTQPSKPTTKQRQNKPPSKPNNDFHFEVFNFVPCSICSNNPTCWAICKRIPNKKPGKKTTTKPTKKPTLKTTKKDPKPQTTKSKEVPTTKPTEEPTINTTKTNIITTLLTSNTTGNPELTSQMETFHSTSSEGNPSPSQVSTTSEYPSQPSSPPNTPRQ
Kind of assay: BLI. The settings on record: both partners purified.

Sequence of RSV G^ecto with GalNAc-restricted O-glycosylation (P03423 whole entry, looked up, the tested form may be a part): as above

B1: Fab 3D3 (papain fragment of mAb 3D3) (Fab, V domains shown)
VH: EEQLVESGGGLVQPGRSLRLSCVGSGLRFEEHAMHWVRQAPGRGLEWVSGISWNSGSVGYADSVKGRFTTSRDNAKDILFLEMNTLRSEDTALYFCAIMVATTKNDFHYYKDVWGKGTTVTVSS
VL: QIVLTQSPATLSLSPGERATLSCRASQSVSNHLAWYQQKPGQAPRLLIYETSNRATGIPPRFSGSGSGTDFTLTISSLEPEDFAVYYCQQRNNWYTFGQGTKLEIK
notes: source: papain digestion of the full length mAb from CHO-S, Fc removed with protein A, purified (Superdex 200 SEC)
Regarding B1, in assay [1], the binding result is “binds”.

B2: human monoclonal antibody 3D3 (recombinant human IgG1) (antibody, V domains shown)
VH: EEQLVESGGGLVQPGRSLRLSCVGSGLRFEEHAMHWVRQAPGRGLEWVSGISWNSGSVGYADSVKGRFTTSRDNAKDILFLEMNTLRSEDTALYFCAIMVATTKNDFHYYKDVWGKGTTVTVSS
VL: QIVLTQSPATLSLSPGERATLSCRASQSVSNHLAWYQQKPGQAPRLLIYETSNRATGIPPRFSGSGSGTDFTLTISSLEPEDFAVYYCQQRNNWYTFGQGTKLEIK
notes: also called mAb 3D3; TRL3D3; source: CHO-S, electroporated, purified (HiTrap Protein G)
As to B2, the binding result in assay [2] was “binds”.

B3: human monoclonal antibody 2D10 (recombinant human IgG1) (antibody, V domains shown)
VH: QVQLVQSGPEVKKPGASVRLSCKASGYVFTNYGVSWVRQAPGQGLEWMGWSSPYNGNTYYAQKLKARVTMTTDTSTNTAYMELRSLRSDDTAVYYCGRDMLGVVQAVAGPFDSWGQGTLVTVSS
VL: DTPMTQSPSSVSASVGDRVTISCRASQGISNSLAWYQQKLGKAPQLLIYAASSLQSGVPSRFSGSGSGTDFTLTISSLQPEDFATYYCQQTNTFPFTFGPGTKVEVR
notes: also called mAb 2D10; source: CHO-S, electroporated, purified (HiTrap Protein G)
In the case of B3, the binding result in assay [2] is “binds”.

B4: Fab 2D10 (papain fragment of mAb 2D10) (Fab, V domains shown)
VH: QVQLVQSGPEVKKPGASVRLSCKASGYVFTNYGVSWVRQAPGQGLEWMGWSSPYNGNTYYAQKLKARVTMTTDTSTNTAYMELRSLRSDDTAVYYCGRDMLGVVQAVAGPFDSWGQGTLVTVSS
VL: DTPMTQSPSSVSASVGDRVTISCRASQGISNSLAWYQQKLGKAPQLLIYAASSLQSGVPSRFSGSGSGTDFTLTISSLQPEDFATYYCQQTNTFPFTFGPGTKVEVR
notes: as for B1
For the molecule B4, the binding result in assay [1] was “binds”.

B5: human monoclonal antibody 3G12 (recombinant human IgG1) (antibody, V domains shown)
VH: QLQLQESGPGLVKPSETLSLTCTVSGGSISSSNYYWGWIRQPPGKGLEWIASIHDSGSIYYNPSLRSRVTISVDTSKNQFSLKLSSVTAADTAVYYCARHLVWFGELRNNWFDPWGQGTLVTVAS
VL: EIVMTQSPATLSVSPGERATLSCRASQSVNSNLAWYQHKPGQAPRLLIYGASTRATGIPARFSGSGSGTDFTLTISSLQSEDFAVYYCQQYNNWPLFGPGTKVDLK
notes: also called mAb 3G12; source: CHO-S, electroporated, purified (HiTrap Protein G)
For B5, the binding result in assay [2] was “binds”.
